# Reference: US9701748B2, “Humanized anti-CD22 antibody” (IMMUNOMEDICS, INC., priority 2014, dated 2017)
# Entries after “also recorded” stand apart in the source; their conditions may differ. Read-outs that look alike come from different tables or passages of the source.
# Assays:
# [1] = target: DDD of the RII form of PKA (Homo sapiens, UniProt P13861); details: Hundsrucker et al., 2006, cited from earlier work
# [2] = system: RII isoform of PKA compared with the RI isoform; details: 2006, cited from earlier work; for isoform preference of peptide antagonists: Stokka et al.
# [3] = system: subcutaneous Ramos Burkitt lymphoma tumors; experiment: Therapeutic efficacy in mice bearing a human Burkitt lymphoma xenograft (Ramos); assay type: in vivo, NCr athymic nu/nu mice
# Experimental: A humanized anti-human CD22 monoclonal antibody, hRFB4, was conjugated with SN-38 as described in U.S. Pat. Nos. 7,999,083 and 8,080,250 (the Examples section of each of which is incorporated herein by reference) at a drug to antibody ratio of 5.71. This antibody drug conjugate (ADC) was tested in mice bearing subcutaneous (s.c.) Ramos Burkitt lymphoma tumors. Efficacy was compared to another anti-CD22 SN-38-ADC, hLL2-SN-38.
# To perform this study, 5 week-old female NCr athymic nu/nu mice were injected s.c. with Ramos cells that were harvested from tissue culture (1×10^7 cells per mouse). Once tumors reach approximately 0.2 cm^3 in size, they were divided up into treatment groups. Mice received 250 μg hRFB4-SN-38 i.p. twice weekly for two weeks. Likewise, mice received hLL2-SN-38 or a non-tumor targeting anti-CEACAM5 SN-38-ADC (hMN14-SN-38) at the same dose/schedule as the hRFB4-SN-38. Saline control mice received 100 μL i.p. injections twice weekly for two weeks. Tumors were measured and mice weighed twice weekly. Animals were euthanized for disease progression if their tumor volumes exceeded 1.0 cm^3 in size.
# [4] = system: B cells gated from PBMCs of healthy donors; experiment: Trogocytosis: surface antigen levels on B cells after overnight treatment of PBMCs, flow cytometry; assay type: cell-based, human
# Experimental: Peripheral blood mononuclear cells (PBMCs) obtained from healthy donors were incubated overnight (16-24 h) with 10 μg/mL of either epratuzumab or an isotype control mAb (hMN-14) and the relative levels of various antigens on the surface of the B cells were analyzed by flow cytometry. PBMCs from heparinized whole blood of normal donors were isolated by density gradient centrifugation on UNI-SEP tubes (Novamed Ltd, Israel). PBMCs were reconstituted in RPMI media supplemented with 10% heat inactivated fetal bovine serum and plated at a cell density of 1.5×10^6/mL in non-tissue culture treated 48-well plates. […] Stained cells were analyzed by flow cytometry on a FACSCALIBUR® (BD Biosciences) using Flowjo (V7.6.5) software. Initially, the lymphocyte population was gated by side vs. forward scattering, and B cells were further gated from this population with the CD19 signal. The mean fluorescence intensity (MFI), obtained with fluorochrome-conjugated antibodies to various cell surface antigens, on the gated B cells was calculated following treatment with epratuzumab, hMN-14 or without antibody. PBMCs from 16 healthy donors were assessed in various experiments.
# [5] = system: patients with moderately active SLE; experiment: Open-label study of hRFB4 in systemic lupus erythematosus; assay type: in vivo, human
# Experimental: An open-label, single-center study of patients with moderately active SLE (total British Isles Lupus Assessment Group (BILAG) score 6 to 12) is conducted. Patients receive dosages of hRFB4 of 50, 100, 200, and 400 mg subcutaneously (SC) every week for 6 weeks. Evaluations include safety, SLE activity (BILAG), blood levels of B and T cells, human anti-RFB4 antibody (HAHA) titers, and levels of cell surface CD19, CD20, CD21, CD22 and CD79b on B cells. It is determined that a dosage of 50-100 mg per SC injection results in optimal depletion of B cell CD19, while producing less than 50% depletion of normal B cells. Subsequently, a subcutaneous dose of 100 mg hRFB4 is administered to a new group of patients with moderately active SLE.
# [6] = system: rheumatoid arthritis patients who have failed at least one TNFα inhibitor; assay type: in vivo, human
# Experimental: Patients who have failed therapy with at least one TNFα inhibitor receive 4 doses of 40, 80, 160 or 320 mg hRFB4 injected s.c. every week or every two weeks. The antibody is either administered alone or in conjunction with oral methotrexate (10-25 mg/week).
# [7] = target: T1, CD22 (Homo sapiens, UniProt P20273); experiment: Binding affinity for CD22+ Daudi cells determined by ELISA (FIG. 2)
# T1 construct: endogenous in cells; host or cells: Daudi (Burkitt lymphoma) cells
# Experimental: FIG. 2. Comparative binding affinity for CD22+ Daudi cells of hLL2 IgG, hRFB4 IgG, chimeric RFB4 conjugated to AD2 peptide, and hMN-14 IgG, as determined by ELISA. The binding affinity of hRFB4 as determined for Daudi cells is about 10-fold higher than that of hLL2 and about 30% higher than the chimeric RFB4.
# The hRFB4 antibody was prepared as described above, resulting in a humanized anti-CD22 antibody with variable region sequences as shown in FIG. 1A and FIG. 1B (SEQ ID NO:7 and SEQ ID NO:8). After expression, the binding affinity or CD22+ Daudi cells was compared to that of the hLL2 antibody, comprising the same FR and constant region sequences but different CDR sequences, and to the chimeric RFB4 antibody, comprising the same CDR sequences but different FR and constant region sequences.
# [8] = system: patients with previously untreated or relapsed hairy cell leukemia; assay type: in vivo, human
# Experimental: Patients with previously untreated or relapsed hairy cell leukemia receive 4 doses of 40, 80, 160 or 320 mg hRFB4 injected s.c. every week or every two weeks.
# [9] = system: patients with primary Sjögren's syndrome; assay type: in vivo, human
# Experimental: Patients with primary Sjögren's syndrome receive 8 doses of 20, 40, 80 or 160 mg hRFB4 injected s.c. every week or every two weeks.
# [10] = system: Daudi cells; experiment: Dose-response of trogocytosis of CD22 and CD19 from Daudi cells (FIG. 6A, 6B); assay type: cell-based, human
# [11] = system: patients with SLE who have failed at least one previous therapy; experiment: Combination therapy of SLE with hRFB4 and hLL2; assay type: in vivo, human; details: single antibody alone, same dosage and schedule
# Experimental: Patients with SLE who have failed at least one previous therapy receive combination therapy with 160 mg each of hRFB4 and hLL2 (epratuzumab), administered s.c. in 2 injections weekly for four weeks. Control groups receive hRFB4 alone, hLL2 alone or irrelevant antibody (hMN-14) at the same dosage and schedule. […] All serum samples evaluated for anti-human antibodies (HAHA) are negative.
# Sequence of DDD of the RII form of PKA (P13861 whole entry, canonical isoform): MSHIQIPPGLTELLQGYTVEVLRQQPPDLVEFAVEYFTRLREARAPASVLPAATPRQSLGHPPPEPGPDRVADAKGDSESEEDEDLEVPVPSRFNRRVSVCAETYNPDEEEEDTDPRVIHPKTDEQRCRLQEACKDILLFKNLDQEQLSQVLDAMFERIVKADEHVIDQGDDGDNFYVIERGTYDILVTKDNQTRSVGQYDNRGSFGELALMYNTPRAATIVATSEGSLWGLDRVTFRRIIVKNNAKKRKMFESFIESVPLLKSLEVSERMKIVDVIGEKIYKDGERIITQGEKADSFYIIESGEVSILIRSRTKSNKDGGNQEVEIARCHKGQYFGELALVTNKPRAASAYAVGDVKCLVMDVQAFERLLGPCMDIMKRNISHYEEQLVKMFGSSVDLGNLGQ
molecule,measurement,setting,value
PEDAELVRLSKRDVENAVLKAVQQY [AKAP7δ-L308D-pep],affinity for the RII DDD sequence,[1],particularly high affinities
LEQYANQLADQIIKEATE [RIAD],isoform preference of peptide antagonists,[2],higher affinity for RI
hMN14-SN-38: non-tumor targeting anti-CEACAM5 SN-38-ADC,median survival time (MST),"[3]; 250 μg i.p. twice weekly for two weeks, days post-therapy initiation, death = tumor exceeding 1.0 cm^3",5 days
FEELAWKIAKMIWSDVFQQC [PV-38],isoform preference of peptide antagonists,[2],higher affinity for RI
DLIEEAASRIVDAVIEQVKAAGAY [Ht-31],isoform preference of peptide antagonists,[2],greater affinity for the RII isoform of PKA
hMN-14: anti-CEACAM5 antibody used as isotype control [reference compound],effect on levels of the tested surface proteins,"[4]; isotype control mAb, 10 μg/mL, overnight",did not affect the levels of any of the tested proteins
QIEYLAKQIVDNAIQQA [AKAP-IS],Kd,"[1]; Alto et al., 2003, read-out: binding constant for DDD",0.4 nM
same,affinity for the RII DDD sequence,[1],particularly high affinities
hLL2-SN-38,survival compared with hMN14-SN-38 control group,[3]; 250 μg i.p. twice weekly for two weeks,no significant difference
same,mice tumor free when the study ended,"[3]; day 87, 250 μg i.p. twice weekly for two weeks",1 of 6
same,survival compared with saline control,"[3]; log-rank test, P=0.0012",significantly better than saline control
PEDAELVRTSKRLVENAVLKAVQQY [AKAP7δ-L304T-pep],affinity for the RII DDD sequence,[1],particularly high affinities
QIEYVAKQIVDYAIHQA [SuperAKAP-IS],selectivity for the RII isoform of PKA compared with the RI isoform,[2]; Gold et al.,five order of magnitude higher selectivity
PEDAELVRLSKRLVENAVLKAVQQY [AKAP7δ-wt-pep],affinity for the RII DDD sequence,[1],particularly high affinities
"hRFB4: humanized anti-CD22 antibody with variable region sequences SEQ ID NO:7 and SEQ ID NO:8 (antibody, V domains shown) VH: QVQLVQSGAEVKKPGSSVKVSCKASGFTFSIYDMSWVRQAPGQGLEWVAYISSGGGTTYYPDTVKGRFTITADESTNTAYMELSSLRSEDTAFYFCARHSGYGSSYGVLFAYWGQGTLVTVSS VL: DIQLTQSPSSLSASVGDRVTISCRASQDISNYLNWYQQKPGKAPKLLIYYTSILHSGVPSRFSGSGSGTDYTFTISSLQPEDIATYYCQQGNTLPWTFGGGTKVQIKR",patients with BILAG decreases continuing to at least 18 weeks,[5]; 100 mg SC,92%
same,decrease of total BILAG scores,"[5]; 100 mg SC, all patients",at least 50%
same,depletion of normal B cells,"[5]; 50-100 mg per SC injection, weekly for 6 weeks",less than 50%
same,immunogenicity,[5]; SLE patients,no evidence of immunogenicity
same,tolerability,[5]; SLE patients,well tolerated
same,patients with improvement in at least one BILAG B- or C-level disease activity,"[5]; at 6, 10 and 18 weeks",93%
same,average decrease of B-cell levels,[5]; at 18 weeks,35%
same,patients with multiple BILAG B involvement at baseline who completely resolved all B-level disease activities,[5]; by 18 weeks,3 patients
same,"depletion of B cell surface levels of CD19, CD20, CD21, CD22 and CD79b",[6]; 80 mg,moderate level
same,"depletion of B cell surface levels of CD19, CD20, CD21, CD22 and CD79b",[6]; 160 mg,much higher level
same,B-cell depletion,[6]; all dosage levels,Transient B-cell depletion
same,human anti-hRFB4 antibody (HAHA) in serum samples,[6]; in vivo,negative
same,release pattern of s.c. antibody,"[6]; in vivo, sc",slow release pattern over several days
same,objective responses,"[6]; s.c., all dose levels",observed at all dose levels
same,optimum dosage,[6]; six months after treatment,160 mg
same,Kd,"[7]; CD22+ Daudi cells, FIG. 2",0.2 nM
same,"binding affinity, higher than the chimeric RFB4","[7]; Daudi cells, versus chimeric RFB4 conjugated to AD2 peptide",about 30%
same,"trogocytosis (MFI of CD22, CD19, CD21, CD79b on B cells) compared with hLL2","[4]; overnight treatment of PBMCs, FIG. 4A-4D",more efficacious than the hLL2 antibody; also recorded: as capable of mediating trogocytosis as hLL2
same,"depletion of B cell surface levels of CD19, CD20, CD21, CD22 and CD79b",[8]; 40 mg,moderate level
same,"depletion of B cell surface levels of CD19, CD20, CD21, CD22 and CD79b",[8]; 80 mg,much higher level
same,B-cell depletion,[8]; all dosage levels,Transient B-cell depletion
same,objective responses (mostly partial responses),[8]; dose of 80 mg,30%
same,human anti-hRFB4 antibody (HAHA) in serum samples,[8]; in vivo,negative
same,release pattern of s.c. antibody,"[8]; in vivo, sc",slow release pattern over several days
same,optimum dosage,[8]; six months after treatment,80 mg
same,median corticosteroid after treatment,"[9]; 80 mg group, six months after treatment, decrease from 17.5 mg/day",8.3 mg/day
same,B-cell depletion,[9]; all dosage levels,Transient B-cell depletion
same,human anti-hRFB4 antibody (HAHA) in serum samples,[9]; in vivo,negative
same,objective responses,"[9]; s.c., all dose levels",observed at all dose levels
same,minimal concentration to induce the maximal level of trogocytosis of CD19,"[10]; CD19 from Daudi cell, FIG. 6B",1 ng/mL
same,minimal concentration to induce the maximal level of trogocytosis of CD22,"[10]; CD22 from Daudi cell, FIG. 6A",1 ng/mL
same,concentration inducing the maximal level of trogocytosis of CD19 and CD22,"[10]; dose-response curve, FIG. 6A and 6B",1 ng/mL
same,objective responses,[11],Objective responses are observed
